Experimental findings from article PMC6127865 are described below.

The target of the data set is T1, HisMBP-CDX2ΔCTD R214N (UniProt Q99626 1-245, R214N).
T1 sequence: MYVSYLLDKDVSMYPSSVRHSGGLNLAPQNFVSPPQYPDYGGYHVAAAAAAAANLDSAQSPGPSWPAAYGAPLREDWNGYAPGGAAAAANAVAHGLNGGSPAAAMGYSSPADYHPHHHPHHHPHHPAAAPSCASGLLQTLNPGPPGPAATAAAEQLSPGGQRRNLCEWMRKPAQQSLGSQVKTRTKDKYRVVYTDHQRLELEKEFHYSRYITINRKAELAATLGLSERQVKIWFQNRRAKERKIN
The experiment in a line: EMSA. For orientation: In EMSA bound probe runs differently from free probe, usually more slowly.

B1: TP5921/TP5922 CDX2 consensus site duplex (dsDNA)
DNA 1: TAATCTCTCTGTTTATAGCTCTGACCT
DNA 2: AGGTCAGAGCTATAAACAGAGAGATTA
For the molecule B1, the binding result is reported as “no binding”.
